Measured values taken from patent publication US20240301067A1 (WUXI BIOLOGICS IRELAND, published 2024).

T1: Human CTLA-4 extracellular domain, His tag (human, UniProt P16410 36-161)
T1 construct: extracellular domain; also called hCTLA-4.ECD.His; not shown: 6xhis tag at C-terminus
T1 sequence (looked up): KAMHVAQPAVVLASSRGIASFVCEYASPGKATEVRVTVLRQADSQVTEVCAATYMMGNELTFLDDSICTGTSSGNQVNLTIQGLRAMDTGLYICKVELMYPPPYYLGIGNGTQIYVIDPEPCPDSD


Key:
[1] = molecular target: T2, Cynomolgus monkey PD-1 on transiently transfected 293F cells (cynomolgus monkey); test: FACS on cyno PD-1 transfected 293F cells, experiment 1
T2 construct: whole, on cells; also called cell surface cynomolgus PD-1; cyno PD-1
Description: (§1) Cynomolgus monkey PD-1 (GenBank Accession No. NP_001271065.1) transient transfected 293F cells (2×10⁵ cells/well) were incubated with various concentrations of anti-PD-1 antibodies (3-fold serially diluted from 133.4 nM to 0.008 nM) at 4° C. for 1 hour. After washing with 1×PBS/1% BSA, the secondary antibody PE-labeled goat anti-human IgG was applied and incubated with cells at 4° C. for 1 hour. Anti-human PD-1 antibodies BMK1 and BMK3 were used as positive control. Human IgG4 isotype antibody was used as negative control. The cells were then washed and re-suspended in 1×PBS/1% BSA. MFI of the cells was measured by a flow cytometer and analyzed by FlowJo (version 7.6.1).

[2] = molecular target: T1, Human CTLA-4 extracellular domain, His …; test: ELISA, coated antigen 1 ug/mL, antibody 100 nM, HRP goat anti-human IgG
Description: Plates were pre-coated with 1 μg/mL, 100 μL per well of hPD-1.ECD.mFc, hCD28.ECD.mFc, hCTLA-4.ECD.His, hICOS.ECD.mFc or hBTLA.ECD.His at 4° C. overnight. After 1-hour blocking using 200 μL of 1×PBS/2% BSA, testing antibodies were added to the plates at a concentration of 100 nM. The plates were incubated at ambient temperature for 1 hour. The binding of the antibodies to the immobilized proteins was detected by HRP-labeled goat anti-human IgG antibody. The color was developed by dispensing 100 μL of TMB substrate, and then stopped by 100 μL of 2N HCl. The absorbance was read at 450 nm and 540 nm using a microplate spectrophotometer.

[3] = molecular target: T3, Cynomolgus PD-1 extracellular domain, hFc tag (cynomolgus, UniProt B0LAJ3 25-170); test: ELISA competition on coated cynoPro1.ECD.hFc; competitor cynoProL1.ECD.hFc.biotin 2.5 µg/mL; experiment 1
T3 construct: Bought; also called cynoPro1.ECD.hFc; cyno PD-1 ECD protein
T3 sequence (B0LAJ3 entry or part of it limits assumed): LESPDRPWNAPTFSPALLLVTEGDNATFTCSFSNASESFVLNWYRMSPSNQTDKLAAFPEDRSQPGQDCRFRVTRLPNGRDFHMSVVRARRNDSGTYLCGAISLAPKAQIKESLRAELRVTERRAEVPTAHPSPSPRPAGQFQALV
Description: Plates were pre-coated with 1 μg/mL, 100 μL per well of cyno PD-1 ECD protein (cynoPro1.ECD.hFc) at 4° C. overnight. After 1-hour blocking using 200 μL of 1×PBS/2% BSA, constant concentration of biotinylated cyno PD-L1 (cynoProL1.ECD.hFc.biotin) (2.5 μg/mL) and various concentrations of testing antibody, positive and negative control (3-fold serially diluted from 133.4 nM to 0.007 nM) were pre-mixed and added to the plates. The plates were incubated at ambient temperature for 1 hour. The binding of ligand to the immobilized protein was detected by streptavidin-HRP. The color was developed by dispensing 100 μL of TMB substrate, and then stopped by 100 μL of 2M HCl. The absorbance was read at 450 nm and 540 nm using a microplate spectrophotometer.

[4] = molecular target: T2, Cynomolgus monkey PD-1 on transiently …; test: FACS on cyno PD-1 transfected 293F cells, experiment 2
Description: as §1

[5] = molecular target: T4, Cynomolgus PD-1 (soluble analyte in SPR, Table 11) (cynomolgus, UniProt B0LAJ3 25-170); test: SPR Biacore 8K; antibody captured on anti-human Fc chip, PD-1 injected; 1:1 fit
T4 construct: also called cyno PD-1
T4 sequence (B0LAJ3 entry or part of it limits assumed): as above
Description: Antibody binding affinity to human, mouse and cynomolgus PD-1 was detected using Biacore 8K. W3056-AP17R1-2H2-Z1-R1-14A1-FC (IgG4.SP) was captured on an anti-human Fc IgG antibody immobilized CM5 sensor chip (GE). Human, mouse and cynomolgus PD-1 at different concentrations were injected over the sensor chip at a flow rate of 30 uL/min for an association phase of 120 s, followed by 150 s dissociation. The chip was then regenerated by 10 mM Glycine pH 1.5 after each binding cycle.
The sensorgrams of blank surface and buffer channel were subtracted from the test sensorgrams. The experimental data was fitted by 1:1 model using Langmiur analysis. Molecular weight of 40, 45 and 40 kDa was used to calculate the molar concentration of analyte human, mouse and cynomolgus PD-1 respectively.

[6] = molecular target: T5, Human PD-1 on CHO-S cells (human, UniProt Q15116 25-288); test: FACS competition with biotinylated BMK3 (1 ug/mL) on CHO-S.hPro1.C6 cells, SA-PE
T5 construct: whole, on cells; also called CHO-S.hPro1.C6; WBP305.CHO-S.hPro1.C6
T5 sequence (Q15116 25-288): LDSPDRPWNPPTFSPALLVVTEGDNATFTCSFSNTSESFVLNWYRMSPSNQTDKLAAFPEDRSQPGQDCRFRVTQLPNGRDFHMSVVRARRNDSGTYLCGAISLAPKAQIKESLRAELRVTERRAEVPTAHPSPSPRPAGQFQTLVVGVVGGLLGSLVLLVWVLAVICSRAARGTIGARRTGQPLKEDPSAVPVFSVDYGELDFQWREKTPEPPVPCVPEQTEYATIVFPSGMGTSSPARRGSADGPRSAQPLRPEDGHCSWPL
Description: The human PD-1 transfected cells CHO-S.hPro1.C6 were transferred into 96-well U-bottom plates at a density of 1˜2×10⁵ cells/well. Serial dilutions of testing antibodies (4-fold serially diluted from 133.3 nM to 0.008 nM) were mixed with constant concentration of biotinylated BMK1 (1 μg/mL) or biotinylated BMK3 (1 μg/mL), respectively. Then the mixture was added to the cells in 96-well plates and incubated at 4° C. for 1 hour. After washing with 1×PBS/1% BSA, the secondary antibody SA-PE was applied and incubated with cells at 4° C. for 1 hour. The cells were then washed and resuspended in 1×PBS/1% BSA. MFI of the cells was measured by a flow cytometer and analyzed by FlowJo. Data were shown FIG. 9.

[7] = molecular target: T5, Human PD-1 on CHO-S cells; test: FACS on CHO-S.hPro1.C6 cells, antibody kept 0 to 14 days in human serum at 37 C, PE goat anti-human IgG
Description: The human PD-1 transfected cell line WBP305-CHO-S.hPro1.C6 cells (1×10⁵ cells/well) were incubated with various concentrations of serum treated W3056 anti-PD-1 antibodies (3-fold serially diluted from 129.9 nM to 0.0007 nM) at 4° C. for 1 hour. After washing with 1×PBS/1% BSA, the secondary antibody PE-labeled goat anti-human IgG was applied and incubated with cells at 4° C. for 1 hour. Human IgG4 isotype antibody was used as negative control. The cells were then washed and resuspended in 1×PBS/1% BSA. MFI of the cells was measured by a flow cytometer (BD) and analyzed by FlowJo.

| Binder | EC50 [1] [nM] | binding result [2] | IC50 [3] [nM] | EC50 [4] [nM] | Kd [5] [nM] | koff [5] [s⁻¹] | kon [5] [M⁻¹ s⁻¹] | IC50 (read off the curve) [6] [nM] | EC50 (read off the curve) [7] [nM] |
| --- | --- | --- | --- | --- | --- | --- | --- | --- | --- |
| W3056-AP17R1-2H2-FC(IgG4.SP) (Fc fusion, VHH fused to Fc of human IgG4 S228P; also called W3056 lead parental antibody (VHH-Fc(hIgG4) fusion); not shown: Fc of human IgG4 (hIgG4.S228P)) QVQLVESGGGLVQPGGSLRLSCAASDSIDSLVNMGWYRQAPGKQRELVALIANYITHYADFVKGRFTISRDAAKNTVNLQMSSLKPEDTAVYYCYARNIIVDYWGQGTQVTVSS | 0.98 | no binding (tested: 100 nM) | 1.3 | – | – | – | – | – | – |
| W3056-AP17R1-2H2-Z1-R1-14A1-FC(IgG4.SP) (Fc fusion, also called W3056 lead antibody (VHH-Fc(hIgG4) fusion); not shown: Fc of human IgG4 (hIgG4.S228P)) QVQLVESGGGVVQPGGSLRLSCAASDSIDSLVNMGWYRQAPGKQRELVALIATYITHYADFVKGRFTISRDNSKNTLYLQMNSLRAEDTAVYYCYARNIIVDYWGQGTLVTVSS | – | no binding (tested: 100 nM) | – | 1.98 | 8.53 | 0.00177 | 208000 | ~20 | 1 to 2 |
